Laboratory results taken from PMC10840515.

Target: HLA-DR1 (HLA-DRA*0101, HLA-DRB1*0101) (human)
Assay: ELISA

Question: For “SARS-CoV-2 Spike peptide S486-505 (Wuhan HU-1)”, which IC50 is on record?
Answer: 1.95 µM

Target: HLA-DR1 (HLA-DRA*0101, HLA-DRB1*0101) (human)
Assay: FP

Question: N328-342 was tested. Which IC50 did it give?
Answer: 4.01 µM

Question: S339-353 was tested. Which IC50 did it give?
Answer: 5.99 µM

Question: N108-122 was tested. Which IC50 did it give?
Answer: > 10 µM

Question: How did the IC50 turn out when nsp12 5019-5033 was run?
Answer: 2.89 µM

Question: N49-63 was tested. Which IC50 did it give?
Answer: 0.493 µM

Question: S235-249 was tested. Which IC50 did it give?
Answer: 8.13 µM

Question: How did the IC50 turn out when ORF8 43-57 was run?
Answer: 0.43 µM

Question: How did the IC50 turn out when N127-141 was run?
Answer: > 10 µM

Question: Which IC50 does the source give for S990-1004 here?
Answer: > 10 µM

Question: With nsp6 3801-3815 as the substance, how does the IC50 read?
Answer: 1.52 µM

Question: Which IC50 does the source give for E56-70 here?
Answer: > 10 µM

Question: For S818-832, which IC50 is on record?
Answer: > 10 µM

Question: For S344-358, which IC50 is on record?
Answer: > 10 µM

Question: For N224-238, which IC50 is on record?
Answer: 2.77 µM

Question: For S1015-1029, which IC50 is on record?
Answer: 7.39 µM

Target: HLA-DR1 (HLA-DRA*0101, HLA-DRB1*0101) (human)
Assay: ELISA
Remark: another data set of the same source

Question: Which IC50 does the source give for “SARS-CoV-2 orf1ab (nsp3) peptide nsp3 1350-1364” here?
Answer: 0.14 µM

Question: Which IC50 does the source give for “SARS-CoV-2 Spike peptide S486-505 (Wuhan HU-1)” here?
Answer: 3.05 µM

Question: “SARS-CoV-2 orf1ab (nsp14) peptide nsp14 6420-6434” was tested. Which IC50 did it give?
Answer: 0.541 µM

Question: SARS-CoV-2 Spike peptide S511-530 was tested. Which IC50 did it give?
Answer: 2.62 µM

Question: With SARS-CoV-2 Spike peptide S167-181 as the substance, how does the IC50 read?
Answer: > 10 µM

Question: SARS-CoV-2 Spike peptide S512-526 was tested. Which IC50 did it give?
Answer: 0.662 µM

Question: SARS-CoV-2 Spike peptide S866-880 was tested. Which IC50 did it give?
Answer: 1.15 µM
